Measurements as given in patent publication US20060275803A1, “Rat and mouse members of the CRISP family of genes” (Wyeth, priority 2005, published 2006).

molecular target: T1, rCRISPA (rCRISP1) (Rattus norvegicus, UniProt P12020); experiment: Protease activity screen: cleavage of substrate peptides by native rCRISPA (+DANA protocol), measured by fluorescence; type: biochemical; conditions: 5 μM substrate peptide, 1 μg enzyme, 100 mM NaCl, 25 mM Tris-Cl, pH 7.5; fluorescence at ten minute intervals for 130 minutes; FIG. 13
T1 construct: Native rCRISPA (rCRISP1) protein, purified with DANA present; from tissue; host or cells: rat epididymis
T1 sequence (P12020 20-246): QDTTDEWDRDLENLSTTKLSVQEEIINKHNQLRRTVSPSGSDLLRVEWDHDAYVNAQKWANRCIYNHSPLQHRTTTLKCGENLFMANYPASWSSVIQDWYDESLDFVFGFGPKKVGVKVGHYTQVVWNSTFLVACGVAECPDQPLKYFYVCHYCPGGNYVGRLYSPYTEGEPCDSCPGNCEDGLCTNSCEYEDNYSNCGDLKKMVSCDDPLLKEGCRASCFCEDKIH
Procedure: FIG. 13 is a graph showing rCRISPA (rCRISP1) protease activity (assay conditions: 5 μM substrate peptide, 1 μg enzyme, 100 mM NaCl, 25 mM Tris-Cl, pH 7.5). A. Cleaved peptides A04 (RGARARLG), N08 (RKRRAPLA), N12 (AKRAASQI), N17 (RKRRAVLT), B22 (APQRFGKK), B17 (RQRYGKRS), B23 (RVKRYRQS), H03 (RNKRAVQG). B. Cleaved peptides B20 (PQRFGRNT), C16 (RVLGLKAH), J21 (LRNRAQSG), H07 (RVKRQVRS), H11 (RRLLRAIP), N05 (RARRELAP), H01 (RKKRSTKK), O22 (GGVRGPRV), O16 (AATRRQAV), O23 (KNVAMQKG), G24 (RRKRSTRE), A09 (RMRRYADA), M02 (EKQRIIGG), H17 (NGLRADPM). C. Uncleaved peptides L16 (KTPRWGG), N10 (FYRADQPR), B11 (AAGVAPLS), J03 (PQLHSTGG), C01 (GPQGLLGA), K11 (VIPRSGGS), M07 (GLQRALEI), A01 (WQGGRRKF), H02 (RAKRSVHF), A10 (SAARPAPP), M16 (RSRREADL), A05 (SYRKVLGQ), M18 (VHRDMAAR), C23 (RDAQAHPG), M09 (GSQHIRAE), E19 (RLGREGVQ), D06 (ALAEAMKK).
Native rCRISPA (rCRISP1) protein, purified with DANA present (see Example 4), was screened for the ability to cleave 360 unique peptides using the commercially available peptide substrate set (catalog # PrSS-360-75, JPT Peptide Technologies, Springfield, Va.). […] The substrate peptides cleaved by rCRISPA in this assay are represented by blue and green traces noted in FIG. 13. Peptides that were not cleaved by rCRISPA are also noted in FIG. 13.

Row | cleavage of substrate peptide by rCRISPA (rCRISP1) protease activity | Substance
1 | Cleaved | AKRAASQI [N12, substrate peptide of the commercial peptide substrate set PrSS-360-75, JPT Peptide Technologies]
2 | Uncleaved | VHRDMAAR [M18, substrate peptide of the commercial peptide substrate set PrSS-360-75, JPT Peptide Technologies]
3 | Uncleaved | GSQHIRAE [M09, substrate peptide of the commercial peptide substrate set PrSS-360-75, JPT Peptide Technologies]
4 | Cleaved | RRKRSTRE [G24, substrate peptide of the commercial peptide substrate set PrSS-360-75, JPT Peptide Technologies]
5 | Uncleaved | GPQGLLGA [C01, substrate peptide of the commercial peptide substrate set PrSS-360-75, JPT Peptide Technologies]
6 | Cleaved | RKKRSTKK [H01, substrate peptide of the commercial peptide substrate set PrSS-360-75, JPT Peptide Technologies]
7 | Cleaved | LRNRAQSG [J21, substrate peptide of the commercial peptide substrate set PrSS-360-75, JPT Peptide Technologies]
8 | Cleaved | RARRELAP [N05, substrate peptide of the commercial peptide substrate set PrSS-360-75, JPT Peptide Technologies]
9 | Cleaved | RKRRAPLA [N08, substrate peptide of the commercial peptide substrate set PrSS-360-75, JPT Peptide Technologies]
10 | Uncleaved | PQLHSTGG [J03, substrate peptide of the commercial peptide substrate set PrSS-360-75, JPT Peptide Technologies]
11 | Uncleaved | WQGGRRKF [A01, substrate peptide of the commercial peptide substrate set PrSS-360-75, JPT Peptide Technologies]
12 | Cleaved | RKRRAVLT [N17, substrate peptide of the commercial peptide substrate set PrSS-360-75, JPT Peptide Technologies]
13 | Cleaved | PQRFGRNT [B20, substrate peptide of the commercial peptide substrate set PrSS-360-75, JPT Peptide Technologies]
14 | Cleaved | RVKRQVRS [H07, substrate peptide of the commercial peptide substrate set PrSS-360-75, JPT Peptide Technologies]
15 | Uncleaved | RLGREGVQ [E19, substrate peptide of the commercial peptide substrate set PrSS-360-75, JPT Peptide Technologies]
16 | Cleaved | RMRRYADA [A09, substrate peptide of the commercial peptide substrate set PrSS-360-75, JPT Peptide Technologies]
17 | Uncleaved | SYRKVLGQ [A05, substrate peptide of the commercial peptide substrate set PrSS-360-75, JPT Peptide Technologies]

Row | cleavage of substrate peptide by rCRISPA (rCRISP1) protease activity | Substance
18 | Cleaved | NGLRADPM [H17, substrate peptide of the commercial peptide substrate set PrSS-360-75, JPT Peptide Technologies]
19 | Uncleaved | VIPRSGGS [K11, substrate peptide of the commercial peptide substrate set PrSS-360-75, JPT Peptide Technologies]
20 | Cleaved | RVKRYRQS [B23, substrate peptide of the commercial peptide substrate set PrSS-360-75, JPT Peptide Technologies]
21 | Cleaved | GGVRGPRV [O22, substrate peptide of the commercial peptide substrate set PrSS-360-75, JPT Peptide Technologies]
22 | Cleaved | RGARARLG [A04, substrate peptide of the commercial peptide substrate set PrSS-360-75, JPT Peptide Technologies]
23 | Cleaved | AATRRQAV [O16, substrate peptide of the commercial peptide substrate set PrSS-360-75, JPT Peptide Technologies]
24 | Cleaved | EKQRIIGG [M02, substrate peptide of the commercial peptide substrate set PrSS-360-75, JPT Peptide Technologies]
25 | Uncleaved | RDAQAHPG [C23, substrate peptide of the commercial peptide substrate set PrSS-360-75, JPT Peptide Technologies]
26 | Uncleaved | KTPRWGG [L16, substrate peptide of the commercial peptide substrate set PrSS-360-75, JPT Peptide Technologies]
27 | Cleaved | RRLLRAIP [H11, substrate peptide of the commercial peptide substrate set PrSS-360-75, JPT Peptide Technologies]
28 | Cleaved | KNVAMQKG [O23, substrate peptide of the commercial peptide substrate set PrSS-360-75, JPT Peptide Technologies]
29 | Uncleaved | SAARPAPP [A10, substrate peptide of the commercial peptide substrate set PrSS-360-75, JPT Peptide Technologies]
30 | Cleaved | APQRFGKK [B22, substrate peptide of the commercial peptide substrate set PrSS-360-75, JPT Peptide Technologies]
31 | Uncleaved | FYRADQPR [N10, substrate peptide of the commercial peptide substrate set PrSS-360-75, JPT Peptide Technologies]
32 | Uncleaved | RAKRSVHF [H02, substrate peptide of the commercial peptide substrate set PrSS-360-75, JPT Peptide Technologies]
33 | Uncleaved | GLQRALEI [M07, substrate peptide of the commercial peptide substrate set PrSS-360-75, JPT Peptide Technologies]
